Tests used:
Human PD-1 = target: T1, Human PD-1 (human); experiment: ELISA on immobilized human PD-1/Fc (9 ng per well), peroxidase-labeled anti-human IgG F(ab)'2, OD450nm
T1 construct: PD-1 part of a purchased recombinant PD-1/Fc fusion protein; immobilized at 9 ng per well; also called recombinant human PD-1 fusion protein; PD-1/Fc (Sino Biological Inc.)

Cynomolgus PD-1 = target: T2, Cynomolgus PD-1 (cynomolgus monkey); experiment: ELISA on immobilized cynomolgus monkey PD-1/Fc (9 ng per well), peroxidase-labeled anti-human IgG F(ab)'2, OD450nm
T2 construct: PD-1 part of a purchased recombinant PD-1/Fc fusion protein; immobilized at 9 ng per well; also called recombinant cynomolgus monkey PD-1 fusion protein; PD-1/Fc (Sino Biological Inc.)

[1] = target: T3, PD-1-His (purified recombinant 6xHis-tagged PD-1_ECD) (UniProt Q15116 25-170); experiment: SPR, affinity improvement against the referenced anti-PD-1 antibody
T3 construct: extracellular domain
T3 sequence (Q15116 other isoform, or with tags, fused parts or gaps limits assumed): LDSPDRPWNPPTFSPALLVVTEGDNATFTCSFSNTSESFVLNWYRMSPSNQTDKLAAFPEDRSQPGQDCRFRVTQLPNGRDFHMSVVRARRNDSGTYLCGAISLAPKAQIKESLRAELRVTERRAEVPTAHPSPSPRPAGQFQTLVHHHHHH

[2] = target: T3, PD-1-His (purified recombinant …); experiment: SPR, full-length IgG, PD-1-His analyte (method of Example 3)
[3] = target: T3, PD-1-His (purified recombinant …); experiment: SPR, antibody captured on anti-human IgG Fc, PD-1-His analyte, 25 C, 1:1 Langmuir
[4] = target: T3, PD-1-His (purified recombinant …); experiment: SPR, affinity improvement against anti-PD-1 ref
[5] = target: T4, PD-1 on activated human T cells; experiment: flow cytometry on PHA-activated human T cells, FITC-labeled anti-human IgG Fcγ, MFI
T4 construct: the sheet names no target
T4 sequence (chain, as listed by the source limits assumed): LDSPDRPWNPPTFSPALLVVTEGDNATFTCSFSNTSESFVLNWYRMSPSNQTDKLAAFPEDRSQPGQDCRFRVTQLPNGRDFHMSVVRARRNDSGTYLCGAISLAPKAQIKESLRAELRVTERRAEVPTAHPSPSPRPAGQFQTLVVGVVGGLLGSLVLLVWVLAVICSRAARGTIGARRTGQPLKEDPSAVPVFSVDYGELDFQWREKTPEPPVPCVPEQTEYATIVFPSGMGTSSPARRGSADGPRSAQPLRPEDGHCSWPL

[6] = target: T3, PD-1-His (purified recombinant …); experiment: competition ELISA: PD-1-His (0.1 µg/ml) first bound to a plate coated with the referenced anti-PD-1 (4 µg/ml), antibody dilutions added afterwards; anti-His-HRP, OD450
[7] = target: T3, PD-1-His (purified recombinant …); experiment: competition ELISA: antibody dilutions pre-mixed with PD-1-His (0.1 µg/ml), then added to a plate coated with the referenced anti-PD-1 (4 µg/ml); anti-His-HRP, OD450
[8] = target: T5, recombinant human PD-1 at the cell surface (PD-1 transfected CHO-S cells) (human, UniProt Q15116 25-288); experiment: blocking flow cytometry: PD-1 expressing CHO-S cells incubated with antibody, washed, then biotin-labeled PD-L1-Fc and streptavidin-PE, MFI
T5 construct: whole, on cells; Also used as the target in the mixed leukocyte reaction rows, where it is human PD-1 on T cells; also called PD-1 expressing CHO-S cells; PD-1 expressed CHO-S cells
T5 sequence (Q15116 25-288): as the sequence (chain, as listed by the source limits assumed) above

[9] = target: T3, PD-1-His (purified recombinant …); experiment: blocking ELISA: antibody dilutions mixed with PD-L1-AP, added to PD-1-His coated wells, OD405
[10] = target: T3, PD-1-His (purified recombinant …); experiment: ELISA on PD-1-His, anti-human IgG Fc-HRP, OD450

T1 sequence (Q15116 25-170): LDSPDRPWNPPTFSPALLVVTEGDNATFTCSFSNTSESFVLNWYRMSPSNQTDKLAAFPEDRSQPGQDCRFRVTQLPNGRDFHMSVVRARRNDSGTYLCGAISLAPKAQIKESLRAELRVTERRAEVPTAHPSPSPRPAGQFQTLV

B1: referenced anti-PD-1 antibody (antibody, human IgG4 S228P, kappa, V domains shown)
VH: QVQLVESGGGVVQPGRSLRLDCKASGITFSNSGMHWVRQAPGKGLEWVAVIWYDGSKRYYADSVKGRFTISRDNSKNTLFLQMNSLRAEDTAVYYCATNDDYWGQGTLVTVSS
VL: EIVLTQSPATLSLSPGERATLSCRASQSVSSYLAWYQQKPGQAPRLLIYDASNRATGIPARFSGSGSGTDFTLTISSLEPEDFAVYYCQQSSNWPRTFGQGTKVEIKR
Human PD-1
  EC50 (read off the curve): ~0.02 µg/mL
Cynomolgus PD-1
  EC50 (read off the curve): ~0.03 µg/mL

B2: humanized anti-PD-1 antibody 1G4 (h1G4) (antibody, human IgG4 S228P, kappa, V domains shown)
VH: QVQLVESGGGLVKPGGSLRLSCAASGFTFSNYGMSWIRQAPGKGLEWVSTISGGGSNIYYADSVKGRFTISRDNAKNSLYLQMNSLRAEDTAVYYCVSYYYGIDFWGQGTSVTVSS
VL: DIQMTQSPSSLSASVGDRVTITCKASQDVTTAVAWYQQKPGKAPKLLIYWASTRHTGVPSRFSGSGSGTDFTLTISSLQPEDFATYYCQQHYTIPWTFGGGTKLEIKR
notes: CDRs of c1G4 grafted onto IGKV1-39*01 and IGHV3-11*04; also called HLX10; humanized h1G4
[1]
  Improvement: 6.37 fold
[2]
  Kd: 0.479 nM
  koff: 0.000216 s⁻¹
  kon: 457000 M⁻¹ s⁻¹
Human PD-1
  EC50 (read off the curve): ~0.03 µg/mL
[3]
  Kd: 0.265 nM
  koff: 7.98e-05 s⁻¹
  kon: 310000 M⁻¹ s⁻¹
Cynomolgus PD-1
  EC50 (read off the curve): ~0.04 µg/mL
[4]
  Improvement: 6.66 fold
[5]
  EC50 (read off the curve): ~0.1 µg/mL

B3: chimeric anti-PD-1 antibody c1G4 (antibody, human IgG4 S228P, kappa, V domains shown)
VH: EVMLVESGGGLVKPGGSLKLSCAASGFTFSNYGMSWVRQTPEKSLEWVATISGGGSNIYYPDSVKGRFTISRDNAKNNLFLQMSGLRSEDTALYYCVSYYYGIDFWGQGTSVTVSS
VL: DIVMTQSHKFMSTSVGDRVSITCKASQDVTTAVAWYQQKPGQSPKLLIYWASTRHTGVPDRFTGSGSGTDYTLTINSVQAEDLALYYCQQHYTIPWTFGGGTKLEIKR
notes: also called chimeric c1G4
[6]
  IC50 (read off the curve): ~0.8 µg/mL
[1]
  Improvement: 9.38 fold
[2]
  Kd: 0.325 nM
  koff: 0.000177 s⁻¹
  kon: 550000 M⁻¹ s⁻¹
[7]
  IC50 (read off the curve): ~0.5 µg/mL
[3]
  Kd: 0.434 nM
  koff: 0.000104 s⁻¹
  kon: 244000 M⁻¹ s⁻¹
[8]
  IC50 (read off the curve): ~0.6 µg/mL
[9]
  IC50 (read off the curve): ~0.4 µg/mL
[10]
  EC50 (read off the curve): ~0.04 µg/mL
[4]
  Improvement: 4.07 fold

Reference: patent US20210277122A1 (SHANGHAI HENLIUS BIOTECH, published 2021)
